Experimental data taken from patent publication US20250361321A1 (Memorial Sloan Kettering, published 2025).
Positions count from the first letter of the chain named.

T1: N30 mutant MUC16-C114-GFP fusion protein expressed on HEK293 cells (HEK293-MUC16mut) (human)
T1 construct: The GFP signal of this line was weaker than that of the WT line (26x against 170x MFI increase); also called MUC16c114 N30A; not shown: GFP fusion partner
T1 chain: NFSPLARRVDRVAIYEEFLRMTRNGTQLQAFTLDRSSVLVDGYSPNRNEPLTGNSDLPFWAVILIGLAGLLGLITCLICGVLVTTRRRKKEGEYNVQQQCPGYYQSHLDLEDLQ

T2: wildtype MUC16-C114-GFP fusion protein expressed on HEK293 cells (HEK293-MUC16WT) (human)
T2 construct: not shown: GFP fusion partner
T2 chain: T1 chain with A30N

B1: anti-MUC16 clone 12 scFv antibody phage clone (scFv)
scFv: NFMLTQPHSVSESPGKTVTISCTRSRGSIASAYVQWYQQRPGSAPITVIYEDYERPSEIPDRFSGSIDSSSNSASLTISGLKTEDEADYYCQSYDDNDHVIFGGGTKVTVLGSRGGGGSGGGGSGGGGSLEMAQVQLQQWGAGLLKPSETLSLTCAVYGGSFSGYYWSWIRQPPGKGLEWIGEINHSGSTNYNPSLKSRIIMSVDTSKRQFSLKLRSATAADTAVYYCARWSPFSYKQMYDYWGQGTLVTVSS
notes: The phage coat fusion is not described
B2: anti-MUC16 clone 8 BsAb (Clone 8/anti-CD3 bispecific antibody) (bispecific antibody)
chain: DIQLTQSPSAVSASVGDRVTITCRASQDVSKWLAWYQQKPGKAPRLLISAASGLQSWVPSRFSGSGSGTEFTLSISSLQPEDFATYYCQQANSFPWTFGQGTKVEIKRSRGGGGSGGGGSGGGGSLEMAQVQLQQWGAGLLKPSETLSLTCAVYGGSFSGYYWSWIRQPPGKGLEWIGEINHSGSTNYNPSLKSRVTISVDTSKNQFSLKLSSVTAADTAVYYCARQSYITDSWGQGTLVTVSSTSGGGGSDVQLVQSGAEVKKPGASVKVSCKASGYTFTRYTMHWVRQAPGQGLEWIGYINPSRGYTNYADSVKGRFTITTDKSTSTAYMELSSLRSEDTATYYCARYYDDHYCLDYWGQGTTVTVSSGEGTSTGSGGSGGSGGADDIVLTQSPATLSLSPGERATLSCRASQSVSYMNWYQQKPGKAPKRWIYDTSKVASGVPARFSGSGSGTDYSLTINSLEAEDAATYYCQQWSSNPLTFGGGTKVEIKHHHHHH
notes: It was secreted from CHO cells; also called clone 8 bispecific antibody; anti-MUC16 clone & BsAb
B3: anti-MUC16 clone 8 scFv antibody phage clone (scFv)
scFv: DIQLTQSPSAVSASVGDRVTITCRASQDVSKWLAWYQQKPGKAPRLLISAASGLQSWVPSRFSGSGSGTEFTLSISSLQPEDFATYYCQQANSFPWTFGQGTKVEIKRSRGGGGSGGGGSGGGGSLEMAQVQLQQWGAGLLKPSETLSLTCAVYGGSFSGYYWSWIRQPPGKGLEWIGEINHSGSTNYNPSLKSRVTISVDTSKNQFSLKLSSVTAADTAVYYCARQSYITDSWGQGTLVTVSS
notes: as for B1

Legend:
[1] = biological target: T1, N30 mutant MUC16-C114-GFP fusion …; assay: FACS, scFv phage on HEK293-MUC16mut cells
Protocol: (§1) 540 phage clones identified from the cell panning were then tested by FACS analysis for binding to HEK293-MUC16WT cells. Briefly, 0.2 million cells (in PBS+5% FBS+0.05% NaN₃) were incubated for 2 h at 4° C. with 50 μl of ˜[…] pfu/mL phage in PBS. FACS was carried out using primary antibody mouse anti-M13 mAb (Thermo #MAI-12900) and secondary antibody PE anti-mouse IgG (Vectors Lab #EI-2007).
(§2) The 40 MUC16 specific clones were tested for their binding to HEK293-MUC16WT. HEK293-MUC16mut, and parental HEK293 cells. […] These clones were thus specific for the N-glycosylation site (N30).

[2] = biological target: T2, wildtype MUC16-C114-GFP fusion protein …; assay: FACS, scFv phage on HEK293-MUC16WT cells (FIG. 5)
Protocol: as §1, §2

[3] = biological target: T3, human MUC16 as expressed on MUC16+ cancer cell lines (OVCAR3, SKOV8, OVCA432) (human); assay: FACS on MUC16+ OVCAR3 cells, BsAb followed by a secondary antibody, against secondary antibody alone
T3 construct: This is endogenous MUC16 on ovarian cancer cell lines; also called hMUC16; Mucin-16
Protocol: In this example, the specificity of the anti-MUC16 BsAbs for binding to cancer cells that express MUC16 was assessed. In one study, two target cell lines were employed, a MUC16⁺ OVCAR3 cell line and a MUC16 SKOV3 cell line. OVCAR3 and SKOV3 cell lines were obtained through the American Type Culture Collection (ATCC®, Manassas, VA) and sustained in culture according to the ATCC® literature. FACS analysis of anti-MUC16 antibody binding to the two target cell lines was performed to confirm that antibody binding was observed only with the MUC16+ OVCAR3 cell line. SKOV3 or OVCAR3 cell lines were incubated with the anti-MUC16 Ab followed by a secondary antibody or with a secondary antibody alone as a control.

Binder	binding result [1]	binding result [2]	MFI increase in binding over the control cells [3]
B1	no binding	binds	
B2			~300 × (fold MFI)
B3	no binding	binds	
